Results published in article PMC9187738.

Molecular target: hamster JUNO (hamster)
Experiment: live imaging-based adhesion molecule (LIAM) assay; BHK cells, non-inducible expression (cytomegalovirus promoter); separately transfected cells mixed in equal amounts 4 h after transfection, incubated 20 h, imaged every 6 min for 12 h at 40x, 37 °C, 5% CO2; read-outs: accumulation at the cell interface and translocation to the opposite cell, % of contacting cell pairs

IZUMO1 accumulation (% of contacting cell pairs): 78%
B1: mouse IZUMO1-Venus (natural protein)
chain: CIKCDQFVTDALKTFENTYLNDHLPHDIHKNVMRMVNHEVSSFGVVTSAEDSYLGAVDENTLEQATWSFLKDLKRITDSDLKGELFIKELLWMLRHQKDIFNNLARQFQKEVLCPNKCGVMSQTLIWCLKCEKQLHICRKSLDCGERHIEVHRSEDLVLDCLLSWHRASKGLTDYSFYRVWENSSETLIAKGKEPYLTKSMVGPEDAGNYRCVLDTINQGHATVIRYDVTVLPPKHSEENQPPNIITQEEHETPVHVTPQTPPGQEPESELYPELHPELYPELIPTVAQNPEKKMKTRLLILLTLGFVVLVASIIISVLHFRKVSAKLKNASDEVKPTASGSKSDQSLSQQMGLKKASQADFNSDYSGDKSEATEN
